Measurements: EP4039268A1 (IMBA-Institut für Molekulare Biotechnologie GmbH, dated 2022)

B1: Cd302 CRD-mouse IgG2a-Fc fusion protein (Fc fusion)
chain: FQGSCYAFLQVTINVENIEDVRKQCTDHGADMVSIHNEEENAFILDTLQKRWKGPDDLLLGMFYDTDDATFKWYDHSNMTFDKWADQDGEDLVDTCGFLYTKTGEWRKGDCEISSVEGTLGGGSGGGSGGGS
B2: Reg3b CRD-mouse IgG2a-Fc fusion protein (Fc fusion)
chain: YGSYCYALFQIPQTWFDAELACQKRPGGHLVSVLNSAEASFLSSMVKRTGNSYQYTWIGLHDPTLGAEPNGGGWEWSNNDVMNYFNWERNPSTALDRAFCGSLSRASGFLKWRDMTCEVKLPYVCKGGGSGGGSGGGS
B3: Cd209e CRD-mouse IgG2a-Fc fusion protein (Fc fusion)
chain: FFNGNCYFFSKSQRDWHDSMTACKEMGAQLVIIKSHEEQSFLQQTSKKNSYTWMGLSDLNKEGEWYWLDGSPLSDSFEKYWKKGQPNNVGGQDCVEFRDNGWNDAKCEQRKFWICKGGGSGGGSGGGS
B4: Pla2r1_2 CRD-mouse IgG2a-Fc fusion protein (Fc fusion)
chain: FNRKCYKLKKDRKSWLGALHSCQSNDSVLMDVASLAEVEFLVSLLRDENASETWIGLSSNKIPVSFEWSSGSSVIFTNWYPLEPRILPNRRQLCVSAEESDGRWKVKDCKERLFYICKGGGSGGGSGGGS
B5: Siglec12 CRD-mouse IgG2a-Fc fusion protein (Fc fusion)
chain: PQEVFTLNVERKVVVQEGLCVLVPCNFSYLKKRLTDWTDSDPVHGFWYREGTDRRKDSIVATNNPIRKAVKETRNRFFLLGDPWRNDCSLNIREIRKKDAGLYFFRLERGKTKYNYMWDKMGGGSGGGSGGGS
B6: Mrc1_8 CRD-mouse IgG2a-Fc fusion protein (Fc fusion)
chain: FYGHCYYFESSFTRSWGQASLECLRMGASLVSIETAAESSFLSYRVEPLKSKTNFWIGMFRNVEGKWLWLNDNPVSFVNWKTGDPSGERNDCVVLASSSGLWNNIHCSSYKGFICKGGGSGGGSGGGS
B7: Reg2 CRD-mouse IgG2a-Fc fusion protein (Fc fusion)
chain: INCPEGANAYGSYCYYLIEDRLTWGEADLFCQNMNAGHLVSILSQAESNFVASLVKESGTTASNVWTGLHDPKSNRRWHWSSGSLFLFKSWATGAPSTANRGYCVSLTSNTAYKKWKDENCEAQYSFVCKFGGGSGGGSGGGS
B8: Sell CRD-mouse IgG2a-Fc fusion protein (Fc fusion)
chain: WTYHYSEKPMNWENARKFCKQNYTDLVAIQNKREIEYLENTLPKSPYYYWIGIRKIGKMWTWVGTNKTLTKEAENWGAGEPNNKKSKEDCVEIYIKRERDSGKWNDDACHKRKAALCGGGSGGGSGGGS
B9: Mrc1_3 CRD-mouse IgG2a-Fc fusion protein (Fc fusion)
chain: HGFYCYLIGSTLSTFTDANHTCTNEKAYLTTVEDRYEQAFLTSLVGLRPEKYFWTGLSDVQNKGTFRWTVDEQVQFTHWNADMPGRKAGCVAMKTGVAGGLWDVLSCEEKAKFVCKGGGSGGGSGGGS
B10: Mrc1_5 CRD-mouse IgG2a-Fc fusion protein (Fc fusion)
chain: YKDYQYYFSKEKETMDNARAFCKKNFGDLATIKSESEKKFLWKYINKNGGQSPYFIGMLISMDKKFIWMDGSKVDFVAWATGEPNFANDDENCVTMYTNSGFWNDINCGYPNNFICQGGGSGGGSGGGS
B11: Mrc2_8 CRD-mouse IgG2a-Fc fusion protein (Fc fusion)
chain: FREHCYSFHMEVLLGHKEALQRCQKAGGTVLSILDEMENVFVWEHLQTAEAQSRGAWLGMNFNPKGGTLVWQDNTAVNYSNWGPPGLGPSMLSHNSCYWIQSSSGLWRPGACTNITMGVVCGGGSGGGSGGGS
B12: Ly75_9 CRD-mouse IgG2a-Fc fusion protein (Fc fusion)
chain: YKDGVYSVIQKKVTWYEALNACSQSGGELASVHNPNGKLFLEDIVNRDGFPLWVGLSSHDGSESSFEWSDGRAFDYVPWQSLQSPGDCVVLYPKGIWRREKCLSVKDGAICYKGGGSGGGSGGGS
B13: Mrc1_7 CRD-mouse IgG2a-Fc fusion protein (Fc fusion)
chain: YGKSSYSLMKLKLPWHEAETYCKDHTSLLASILDPYSNAFAWMKMHPFNVPIWIALNSNLTNNEYTWTDRWRVRYTNWGADEPKLKSACVYMDVDGYWRTSYCNESFYFLCKGGGSGGGSGGGS
B14: Sftpa1 CRD-mouse IgG2a-Fc fusion protein (Fc fusion)
chain: not shown
B15: Pla2r1_1 CRD-mouse IgG2a-Fc fusion protein (Fc fusion)
chain: SSRICYQFNLLSSLSWNQAHSSCLMQGGALLSIADEDEEDFIRKHLSKVVKEVWIGLNQLDEKAGWQWSDGTPLSYLNWSQEITPGPFVEHHCGTLEVVSAAWRSRDCESTLPYICKGGGSGGGSGGGS
B16: Ly75_7 CRD-mouse IgG2a-Fc fusion protein (Fc fusion)
chain: YLNNLYKIISKPLTWHGALKECMKEKMRLVSITDPYQQAFLAVQATLRNSSFWIGLSSQDDELNFGWSDGKRLQFSNWAGSNEQLDDCVILDTDGFWKTADCDDNQPGAICYYGGGSGGGSGGGS
B17: Mrc2_6 CRD-mouse IgG2a-Fc fusion protein (Fc fusion)
chain: FLNKCFRIQGQDPQDRVKWSEAQFSCEQQEAQLVTIANPLEQAFITASLPNVTFDLWIGLHASQRDFQWIEQEPLLYTNWAPGEPSGPSPAPSGTKPTSCAVILHSPSAHFTGRWDDRSCTEETHGFICGGGSGGGSGGGS
B18: Pla2r1_8 CRD-mouse IgG2a-Fc fusion protein (Fc fusion)
chain: FKGNCYSFSTVLDSRSFEDAHEFCKSEGSNLLAIRDAAENSFLLEELLAFGSSVQMVWLNAQFDNNNKTLRWFDGTPTEQSNWGLRKPDMDHLKPHPCVVLRIPEGIWHFTPCEDKKGFICKGGGSGGGSGGGS
B19: Reg1 CRD-mouse IgG2a-Fc fusion protein (Fc fusion)
chain: ISCPEGSNAYSSYCYYFTEDRLTWADADLFCQNMNSGYLVSVLSQAEGNFVASLIKESGTTDANVWTGLHDPKRNRRWHWSSGSLFLYKSWATGSPNSSNRGYCVSLTSNTGYKKWKDDNCDAQYSFVCKFGGGSGGGSGGGS
B20: Mrc2_5 CRD-mouse IgG2a-Fc fusion protein (Fc fusion)
chain: FQEAEYKFFEHHSSWAQAQRICTWFQADLTSVHSQAELDFLGQNLQKLSSDQEQHWWIGLHTLESDGRFRWTDGSIINFISWAPGKPRPIGKDKKCVYMTARQEDWGDQRCHTALPYICKGGGSGGGSGGGS
B21: Reg3a CRD-mouse IgG2a-Fc fusion protein (Fc fusion)
chain: YRSHCYALVMTPKSWFQADLVCQKRPSGHLVSILSGGEASFVSSLVNGRVDNYQDIWIGLHDPTMGQQPNGGGWEWSNSDVLNYLNWDGDPSSTVNRGHCGSLTASSGFLKWGDYYCDGTLPFVCKGGGSGGGSGGGS
B22: Mrc1_6 CRD-mouse IgG2a-Fc fusion protein (Fc fusion)
chain: YKNKCFKIFGFANEEKKSWQDARQACKGLKGNLVSIENAQEQAFVTYHMRDSTFNAWTGLNDINAEHMFLWTAGQGVHYTNWGKGYPGGRRSSLSYEDADCVVVIGGNSREAGTWMDDTCDSKQGYICQGGGSGGGSGGGS
B23: Cd69 CRD-mouse IgG2a-Fc fusion protein (Fc fusion)
chain: YKRTCYFFSTTTKSWALAQRSCSEDAATLAVIDSEKDMTFLKRYSGELEHWIGLKNEANQTWKWANGKEFNSWFNLTGSGRCVSVNHKNVTAVDCEANFHWVCSGGGSGGGSGGGS
B24: Siglec1 CRD-mouse IgG2a-Fc fusion protein (Fc fusion)
chain: TWGVSSPKNVQGLSGSCLLIPCIFSYPADVPVSNGITAIWYYDYSGKRQVVIHSGDPKLVDKRFRGRAELMGNMDHKVCNLLLKDLKPEDSGTYNFRFEISDSNRWLDVKGTTVTVTGGGSGGGSGGGS
B25: Reg3g CRD-mouse IgG2a-Fc fusion protein (Fc fusion)
chain: YGSYCYALFSVSKNWYDADMACQKRPSGHLVSVLSGAEASFLSSMIKSSGNSGQYVWIGLHDPTLGYEPNRGGWEWSNADVMNYINWETNPSSSSGNHCGTLSRASGFLKWRENYCNLELPYVCKGGGSGGGSGGGS
B26: Pkd1l2 CRD-mouse IgG2a-Fc fusion protein (Fc fusion)
chain: not shown
B27: Pkd1 CRD-mouse IgG2a-Fc fusion protein (Fc fusion)
chain: GNGHCYRLVAEKAPWLQAQEQCRTWAGAALAMVDSPAIQHFLVSKVTRSLDVWIGFSSVEGTEGLDPRGEAFSLESCQNWLPGEPHPATAEHCVRLGPAGQCNTDLCSAPHSYVCEGGGSGGGSGGGS

Legend:
Assay in all cases: ELISA screen
[1] = target: T1, full-length trimeric SARS-CoV-2 Spike protein (Spike-H6) (SARS-CoV-2, N-glycosylated (22 N-glycosylation sites))
T1 construct: also called trimeric Spike; full-length Spike-H6

[2] = target: T2, monomeric SARS-CoV-2 receptor binding domain (RBD-H6) (SARS-CoV-2, UniProt P0DTC2 319-541)
T2 construct: Made in HEK293-6E cells; also called RBD Spike; monomeric RBD

[3] = target: T3, human recombinant soluble ACE2 (human, UniProt Q9BYF1 18-740)
T3 construct: also called hrsACE2
T3 sequence (Q9BYF1 18-740 limits assumed): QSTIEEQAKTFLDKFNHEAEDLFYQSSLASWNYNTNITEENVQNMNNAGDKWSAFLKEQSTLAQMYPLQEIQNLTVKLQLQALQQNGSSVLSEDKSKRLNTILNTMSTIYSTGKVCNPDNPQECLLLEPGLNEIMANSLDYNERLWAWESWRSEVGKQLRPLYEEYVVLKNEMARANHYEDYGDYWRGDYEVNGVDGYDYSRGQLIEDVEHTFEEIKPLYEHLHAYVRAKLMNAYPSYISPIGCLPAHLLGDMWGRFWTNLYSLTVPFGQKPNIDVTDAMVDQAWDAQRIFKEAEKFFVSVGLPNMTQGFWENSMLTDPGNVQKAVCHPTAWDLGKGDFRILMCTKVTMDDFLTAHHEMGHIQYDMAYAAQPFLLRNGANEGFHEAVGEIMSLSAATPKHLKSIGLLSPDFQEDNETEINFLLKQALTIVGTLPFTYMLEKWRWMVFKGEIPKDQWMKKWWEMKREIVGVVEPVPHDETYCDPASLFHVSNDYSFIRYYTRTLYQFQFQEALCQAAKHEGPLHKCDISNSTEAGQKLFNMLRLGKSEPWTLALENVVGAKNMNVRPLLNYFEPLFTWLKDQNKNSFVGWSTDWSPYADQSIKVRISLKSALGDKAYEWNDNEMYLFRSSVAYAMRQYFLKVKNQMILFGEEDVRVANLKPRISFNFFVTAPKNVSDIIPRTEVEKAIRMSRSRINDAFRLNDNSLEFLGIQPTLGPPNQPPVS

Binder	Mean normalized OD [1]	Mean normalized OD [2]	Mean normalized OD [3]
B1	-0.002 OD	0.001 OD	-0.002 OD
B2	0.005 OD	0.004 OD	-0.009 OD
B3	0.045 OD	0.048 OD	-0.016 OD
B4	0.001 OD	0.011 OD	-0.019 OD
B5	0.046 OD	-0.021 OD	-0.105 OD
B6	-0.057 OD	0.019 OD	-0.021 OD
B7	0.056 OD	0.026 OD	-0.042 OD
B8	-0.016 OD	-0.041 OD	-0.23 OD
B9	0.037 OD	0.038 OD	-0.064 OD
B10	-0.001 OD	0 OD	-0.004 OD
B11	0 OD	0.003 OD	-0.001 OD
B12	0.001 OD	0.004 OD	-0.014 OD
B13	-0.002 OD	0.02 OD	-0.008 OD
B14	0.005 OD	0.002 OD	-0.092 OD
B15	0 OD	0 OD	-0.066 OD
B16	0.001 OD	0.003 OD	-0.009 OD
B17	0.011 OD	0.006 OD	-0.019 OD
B18	-0.002 OD	0.019 OD	-0.005 OD
B19	1.55 OD	0.009 OD	-0.073 OD
B20	-0.002 OD	0.002 OD	-0.005 OD
B21	0.006 OD	0.039 OD	-0.132 OD
B22	0.004 OD	0.004 OD	-0.001 OD
B23	0.001 OD	0.001 OD	-0.022 OD
B24	0 OD	0 OD	-0.002 OD
B25	-0.009 OD	0.017 OD	-0.014 OD
B26	0.001 OD	0.001 OD	-0.002 OD
B27	0 OD	0 OD	-0.01 OD
